Source: patent publication US20250215089A1 (HARBOUR BIOMED SHANGHAI, published 2025)
Where “and” joins values, the source holds several entries; their conditions need not be identical. Identical values can stand only once. Like-named read-outs stand apart in the source and are kept apart here.

What was measured:
human PD-L1 [1] = biological target: T1, human PD-L1 (human, UniProt Q9NZQ7 19-290); assay: cell-based or functional assay
human PD-L1 [2] = biological target: T1, human PD-L1; assay: FACS, CHO-K1/hPD-L1 cells
Procedure: Specifically, the cells expressing PD-L1 were digested and resuspended in PBS buffer containing 2% BSA. The cells were adjusted to a cell density of 1×10⁶ cells/mL, respectively. The cells were seeded in a 96-well V-bottom plate (Corning, #3894) at 100 μL/well, and the antibody to be tested at 2×final concentration with 4-fold concentration gradient dilution was then added at 100 μL/well. The cells were incubated at 4° C. for 2 hours in the dark. After the incubation, the cells were rinsed twice by adding pre-chilled PBS containing 2% BSA at 100 μL/well, and centrifuged at 500 g at 4° C. for 5 minutes, and the supernatant was discarded. […] The cells were washed twice by adding pre-chilled PBS containing 2% BSA at 100 µL/well, and centrifuged at 500 g at 4° C. for 5 minutes, and the supernatant was discarded. Finally, the cells were resuspended in pre-chilled PBS buffer containing 2% BSA at 200 μL/well. The fluorescence signal values were read using a BD FACS CANTOII flow cytometer or ACEA NovoCyte flow cytometer, and the data were processed and analyzed using FlowJo v10 software (FlowJo, LLC).
(§1) Data processing and graphical analysis were performed using GraphPad Prism 8 software. The binding curve of the antibody to the target cell and parameters, such as EC₅₀ value were obtained by four-parameter nonlinear fitting.

human CD40 [3] = biological target: T2, human CD40 (human, UniProt P25942 21-277); assay: FACS, Raji cells
T2 construct: whole, on cells; also called hCD40; TNFRSF5
T2 sequence (P25942 21-277): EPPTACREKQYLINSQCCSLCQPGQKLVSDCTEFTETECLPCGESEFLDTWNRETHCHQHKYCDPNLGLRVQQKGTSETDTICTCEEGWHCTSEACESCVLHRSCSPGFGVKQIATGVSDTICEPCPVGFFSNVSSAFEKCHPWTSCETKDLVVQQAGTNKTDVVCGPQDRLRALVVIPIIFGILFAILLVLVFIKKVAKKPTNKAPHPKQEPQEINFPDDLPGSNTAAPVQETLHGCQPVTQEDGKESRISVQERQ
Procedure: The cells were incubated at 4° C. for 1 hours in the dark. After the incubation, the cells were rinsed twice by adding pre-chilled PBS at 100 μL/well, and centrifuged at 500 g at 4° C. for 5 minutes, and the supernatant was discarded. Then, a fluorescent secondary antibody (goat anti-human IgG (H+L) secondary antibody, Alexa Fluor® 488 conjugate, Invitrogen, #A11013, 1:1000 dilution) was added at 100 μL/well, and the cells were incubated at 4° C. for 30 minutes in the dark. The cells were washed twice with pre-chilled PBS at 200 μL/well, and centrifuged at 500 g at 4° C. for 5 minutes, and the supernatant was discarded. Finally, the cells were resuspended in pre-chilled PBS at 200 μL/well. The fluorescence signal values were read using a BD FACS CANTOII flow cytometer or ACEA NovoCyte flow cytometer, and the data were processed and analyzed using FlowJo v10 software (FlowJo, LLC).
as §1

human CD40 [4] = biological target: T2, human CD40; assay: cell-based or functional assay
human CD40 [5] = biological target: T2, human CD40; assay: cell-based or functional assay; remark: listed apart in the source

T1 sequence (Q9NZQ7 19-290): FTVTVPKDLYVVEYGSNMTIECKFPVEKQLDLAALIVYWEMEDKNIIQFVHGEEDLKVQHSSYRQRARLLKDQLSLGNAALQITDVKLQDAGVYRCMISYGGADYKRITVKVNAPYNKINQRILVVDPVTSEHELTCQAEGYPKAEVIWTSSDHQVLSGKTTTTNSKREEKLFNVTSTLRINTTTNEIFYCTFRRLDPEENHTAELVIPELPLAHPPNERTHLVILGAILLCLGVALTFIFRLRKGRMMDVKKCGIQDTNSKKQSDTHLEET

| Binder | EC50, Jurkat-NFAT-hPD1 reporter (human PD-L1 [1]) [nM] | Maximum (RLU), Jurkat-NFAT-hPD1 reporter (human PD-L1 [1]) [RLU] | EC50 (human PD-L1 [2]) | Maximum MFI (human PD-L1 [2]) [MFI] | EC50 (human CD40 [3]) [nM] | Maximum MFI (human CD40 [3]) [MFI] | also measured |
| --- | --- | --- | --- | --- | --- | --- | --- |
| PR000960 (antibody, human IgG1, V domains shown, Fully human heavy-chain-only antibody (HCAb): VH fused to human IgG1 Fc; no light chain) VH: QVQLVESGGGVVQPGMSLRLSCAASGFNFSNYGMYWVRQAPGKGQEWVAIIWYDGTKKHYADSVKGRFTISRDNSKNTLYLEMNSLRVEDTAVYYCAKNRAIFGVVPDASDIRGQGTMVTVSS | 0.31 | 18400 | 0.79 nM | 23700 | – | – | – |
| PR005878 (antibody, human IgG1, V domains shown, HCAb; human IgG1 Fc; no light chain) VH: QVQLVESGGGVVQPGMSLRLSCAASGFTFSSYGMYWVRQAPGKGQEWVASIRYTGTEKHYADSVKGRFTISRDNSKNTLYLEMNSLRVEDTAVYYCAKNRALFGVIPDDSDIRGQGTMVTVSS | 0.166 | 13400 | 1.08 nM | 419000 | – | – | – |
| PR006246 (antibody, human IgG1, V domains shown, HCAb; human IgG1 Fc; no light chain) VH: QVQLVESGGGVVQPGMSLRLSCAASGFDFSSYGMYWVRQAPGKGQEWVASIRYTGTEKHYADSVKGRFTISRDNSKNTLYLEMNSLRVEDTAVYYCAKNRAIFGVIPDDSDIRGQGTMVTVSS | 0.132 | 13700 | 0.764 nM | 396000 | – | – | – |
| PR006247 (antibody, human IgG1, V domains shown, HCAb; human IgG1 Fc; no light chain) VH: QVQLVESGGGVVQPGMSLRLSCAASGFDFSSYGMYWVRQAPGKGQEWVASIRYTGTEKHYADSVKGRFTISRDNSKNTLYLEMNSLRVEDTAVYYCAKNRALFGVIPDASDIRGQGTMVTVSS | 0.15 | 13400 | 1.01 nM | 410000 | – | – | – |
| PR006245 (antibody, human IgG1, V domains shown, HCAb; human IgG1 Fc; no light chain) VH: QVQLVESGGGVVQPGMSLRLSCAASGFDFSSYGMYWVRQAPGKGQEWVASIRYTGTEKHYADSVKGRFTISRDNSKNTLYLEMNSLRVEDTAVYYCAKNRAIFGVVPDASDIRGQGTMVTVSS | 0.151 | 13800 | 0.964 nM | 405000 | – | – | – |
| PR002082 (antibody, human IgG1, V domains shown, HCAb; PTM variant of PR000960 (N28T, N31S); human IgG1 Fc; no light chain) VH: QVQLVESGGGVVQPGMSLRLSCAASGFTFSSYGMYWVRQAPGKGQEWVAIIWYDGTKKHYADSVKGRFTISRDNSKNTLYLEMNSLRVEDTAVYYCAKNRAIFGVVPDASDIRGQGTMVTVSS | 0.217 | 12100 | 0.86 nM and 1.31 nM | – | – | – | – |
| PR006248 (antibody, human IgG1, V domains shown, HCAb; human IgG1 Fc; no light chain) VH: QVQLVESGGGVVQPGMSLRLSCAASGFDFSSYGMYWVRQAPGKGQEWVASIRYTGTEKHYADSVKGRFTISRDNSKNTLYLEMNSLRVEDTAVYYCAKNRALFGVIPDDSDIRGQGTMVTVSS | 0.121 | 14100 | 0.606 nM | 404000 | – | – | – |
| PR003379 (antibody, human IgG2, kappa, V domains shown, also called clone 18C4A12-1B1) VH: QVQLVQSGAEVKKPGASVKVSCKASGYTFAGYYMYWVRQAPGQGLEWMGWINPDSGAPTYAQKFQGRVTMTRDTSISTAYMELSRLRSDDTAVYYCAREKIYYGSGNYYPSFDYWGQGTLVTVSS VL: DIQLTQSPSFLSASVGDRVTITCRASQGISSYLAWYQQKPGKAPKLLIYAASTLQSGVPSRFSGSGSGTEFTLTISSLQPEDFATYYCQQLNSYPWTFGQGTKVEIKR | – | – | – | – | 0.0699 | 3700 | EC50, HEK293-hCD40-NFκB reporter, crosslinked (CHO-K1/hCD32B) (human CD40 [4]): 0.178 nM; EC50, HEK293-hCD40-NFκB reporter, uncrosslinked (CHO-K1) (human CD40 [4]): 0.369 nM; Fold (EC50 in the absence of crosslinking/EC50 in the presence of crosslinking) (human CD40 [4]): 2.07 fold |
| PR006495 (antibody, human IgG1, kappa, V domains shown, Variant of PR003379, L: N92A; human IgG1 L234A, L235A, G237A) VH: QVQLVQSGAEVKKPGASVKVSCKASGYTFAGYYMYWVRQAPGQGLEWMGWINPDSGAPTYAQKFQGRVTMTRDTSISTAYMELSRLRSDDTAVYYCAREKIYYGSGNYYPSFDYWGQGTLVTVSS VL: DIQLTQSPSFLSASVGDRVTITCRASQGISSYLAWYQQKPGKAPKLLIYAASTLQSGVPSRFSGSGSGTEFTLTISSLQPEDFATYYCQQLASYPWTFGQGTKVEIKR | – | – | – | – | 0.356 | 8870 | EC50, HEK293-hCD40-NFκB reporter, crosslinked (human CD40 [5]): 0.109 nM; EC50, HEK293-hCD40-NFκB reporter, uncrosslinked (human CD40 [5]): 0.905 nM; Fold (EC50 in the absence of crosslinking/EC50 in the presence of crosslinking) (human CD40 [5]): 8.28 fold; Maximum fold, HEK293-hCD40-NFκB reporter, crosslinked (human CD40 [5]): 5.54 fold; Maximum fold, HEK293-hCD40-NFκB reporter, uncrosslinked (human CD40 [5]): 4.92 fold |
| PR006497 (antibody, human IgG1, kappa, V domains shown, Variant of PR003379, L: N92Y; human IgG1 L234A, L235A, G237A) VH: QVQLVQSGAEVKKPGASVKVSCKASGYTFAGYYMYWVRQAPGQGLEWMGWINPDSGAPTYAQKFQGRVTMTRDTSISTAYMELSRLRSDDTAVYYCAREKIYYGSGNYYPSFDYWGQGTLVTVSS VL: DIQLTQSPSFLSASVGDRVTITCRASQGISSYLAWYQQKPGKAPKLLIYAASTLQSGVPSRFSGSGSGTEFTLTISSLQPEDFATYYCQQLYSYPWTFGQGTKVEIKR | – | – | – | – | 0.252 | 9200 | EC50, HEK293-hCD40-NFκB reporter, crosslinked (human CD40 [5]): 0.158 nM; EC50, HEK293-hCD40-NFκB reporter, uncrosslinked (human CD40 [5]): 0.479 nM; Fold (EC50 in the absence of crosslinking/EC50 in the presence of crosslinking) (human CD40 [5]): 3.03 fold; Maximum fold, HEK293-hCD40-NFκB reporter, crosslinked (human CD40 [5]): 4.77 fold; Maximum fold, HEK293-hCD40-NFκB reporter, uncrosslinked (human CD40 [5]): 4.61 fold |
| PR006496 (antibody, human IgG1, kappa, V domains shown, Variant of PR003379, L: N92F; human IgG1 L234A, L235A, G237A) VH: QVQLVQSGAEVKKPGASVKVSCKASGYTFAGYYMYWVRQAPGQGLEWMGWINPDSGAPTYAQKFQGRVTMTRDTSISTAYMELSRLRSDDTAVYYCAREKIYYGSGNYYPSFDYWGQGTLVTVSS VL: DIQLTQSPSFLSASVGDRVTITCRASQGISSYLAWYQQKPGKAPKLLIYAASTLQSGVPSRFSGSGSGTEFTLTISSLQPEDFATYYCQQLFSYPWTFGQGTKVEIKR | – | – | – | – | 0.277 | 9300 | EC50, HEK293-hCD40-NFκB reporter, crosslinked (human CD40 [5]): 0.217 nM; EC50, HEK293-hCD40-NFκB reporter, uncrosslinked (human CD40 [5]): 0.43 nM; Fold (EC50 in the absence of crosslinking/EC50 in the presence of crosslinking) (human CD40 [5]): 1.98 fold; Maximum fold, HEK293-hCD40-NFκB reporter, crosslinked (human CD40 [5]): 5.03 fold; Maximum fold, HEK293-hCD40-NFκB reporter, uncrosslinked (human CD40 [5]): 4.43 fold |
| PR006511 (antibody, human IgG1, kappa, V domains shown, Variant of PR003379, L: S93N; human IgG1 L234A, L235A, G237A) VH: QVQLVQSGAEVKKPGASVKVSCKASGYTFAGYYMYWVRQAPGQGLEWMGWINPDSGAPTYAQKFQGRVTMTRDTSISTAYMELSRLRSDDTAVYYCAREKIYYGSGNYYPSFDYWGQGTLVTVSS VL: DIQLTQSPSFLSASVGDRVTITCRASQGISSYLAWYQQKPGKAPKLLIYAASTLQSGVPSRFSGSGSGTEFTLTISSLQPEDFATYYCQQLNNYPWTFGQGTKVEIKR | – | – | – | – | 0.386 | 11800 | – |
| PR006504 (antibody, human IgG1, kappa, V domains shown, Variant of PR003379, L: N92V; human IgG1 L234A, L235A, G237A) VH: QVQLVQSGAEVKKPGASVKVSCKASGYTFAGYYMYWVRQAPGQGLEWMGWINPDSGAPTYAQKFQGRVTMTRDTSISTAYMELSRLRSDDTAVYYCAREKIYYGSGNYYPSFDYWGQGTLVTVSS VL: DIQLTQSPSFLSASVGDRVTITCRASQGISSYLAWYQQKPGKAPKLLIYAASTLQSGVPSRFSGSGSGTEFTLTISSLQPEDFATYYCQQLVSYPWTFGQGTKVEIKR | – | – | – | – | 0.35 | 12200 | – |
